The results in this text go back to US20260185163A1, “MEN1 MUTATIONS AND USES THEREOF” (DANA-FARBER CANCER INSTITUTE, INC., priority 2022, published 2026).

One assay addresses M327I (UniProt O00255). Nature of the assay: fluorescence polarization competition.
A further assay deals with T349M (UniProt O00255). Briefly: fluorescence polarization competition.
For the next assay, the target named is WT (UniProt O00255). Nature of the assay: fluorescence polarization competition. For orientation: Fluorescence polarisation rises when a labelled molecule tumbles more slowly, as on binding a larger partner.
Assay [1] has as its target StrepII-Avi-TEV-Menin (wild-type human Menin, recombinant, E. coli) (UniProt O00255). Briefly: fluorescence polarization.
Assay [2] addresses StrepII-Avi-TEV-Menin M327I (recombinant mutant human Menin) (UniProt O00255). Briefly: fluorescence polarization.
Assay [3] concerns the target StrepII-Avi-TEV-Menin T349M (recombinant mutant human Menin) (UniProt O00255). Briefly: fluorescence polarization.

As usually defined, the IC50 is the concentration that gives 50% inhibition. A lower IC50 goes with greater potency in that assay. Broadly, the Ki is the equilibrium dissociation constant of an inhibitor or competing ligand from its target. Read a low Ki as a stronger hold on the target. By Kd is commonly meant the equilibrium constant for the complex coming apart.

For MLL1 Peptide, the IC50 was 20.3 nM with M327I, 101 nM with T349M and 26.1 nM with WT. For the same substance, the Ki was 7.78 nM in the assay with M327I, 51.4 nM with T349M and 9.17 nM with WT.

Turning to “N-terminally FITC-labelled MLL2(15-48) peptide”, the Kd in assay [1] stood at 1.78 nM; in assay [2], 2.56 nM; in assay [3], 3.7 nM.
